Measurements from patent US20260201068A1 (UNIVERSIT DE GEN VE, published 2026).

Key:
[1] = molecular target: T1, human PTPRZ1 extracellular portion (domains 1 plus 2) knocked in and shown on Ge518_PTPRZ1-KI cells (human, UniProt P23471 25-413, limits assumed); assay: flow cytometry on Ge518_PTPRZ1-KI cells, scFv conjugated to rabbit Fc, anti-rabbit IgG AlexaFluo488
T1 construct: domain: extracellular portion (domains 1 plus 2); parental Ge518 has low PTPRZ1 expression; also called receptor-type tyrosine-protein phosphatase zeta
T1 sequence (P23471 25-413 limits assumed): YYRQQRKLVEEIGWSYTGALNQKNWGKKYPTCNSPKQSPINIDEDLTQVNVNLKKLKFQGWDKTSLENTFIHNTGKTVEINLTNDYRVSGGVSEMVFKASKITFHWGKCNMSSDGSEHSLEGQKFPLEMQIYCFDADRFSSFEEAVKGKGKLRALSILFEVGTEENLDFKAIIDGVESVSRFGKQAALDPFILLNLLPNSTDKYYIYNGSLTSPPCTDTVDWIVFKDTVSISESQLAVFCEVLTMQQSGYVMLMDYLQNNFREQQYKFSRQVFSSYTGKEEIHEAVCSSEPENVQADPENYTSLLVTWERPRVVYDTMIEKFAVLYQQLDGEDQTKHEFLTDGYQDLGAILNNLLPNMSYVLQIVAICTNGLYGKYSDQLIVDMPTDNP
Source text: The GBM cell line Ge518, obtained in our lab from a patient tumor resection, was used as a tumor model to evaluate CAR T cell efficacy. As PTPRZ1 expression was low in these cells, the antigen was overexpressed by introducing (knock-in) an extracellular portion (domains 1 plus 2) of the human PTPRZ1 molecule under the EF1a promoter, using a 3rd generation LV vector with puromycin selection.

[2] = molecular target: human PTPRZ1 extracellular portion (domains 1 plus 2) knocked in and shown on Ge518_PTPRZ1-KI cells (human) (UniProt P23471); assay: cell-based or functional assay
Sequence of human PTPRZ1 extracellular portion (domains 1 plus 2) knocked in and shown on Ge518_PTPRZ1-KI cells (human) (P23471 25-413 limits assumed): as above

| Binder | level of recognition (percent, flow cytometry) [1] [%] | killing of Ge518 PTPRZ1-KI target cells by CAR T cells, E:T 3:1 [2] [%] |
| --- | --- | --- |
| anti-PTPRZ1 scFv RRB473 conjugated to a rabbit Fc (Fc fusion, scFv conjugated to a rabbit Fc for flow cytometry; also called scFv 473; not shown: rabbit Fc) scFv: MAQVQLVESGGGVVQPGRSLRLSCAASGFTFSSYAMHWVRQAPGKGLEWVAVISYDGSNKYYADSVKGRFTISRDNSKNTLYLQMNSLRAEDTAVYYCARDQDDSSDAFDIWGQGTLVTVSSGGGGSGGGGSGGGGSTQSVLTQPPSVSAAPGQKVTISCSGSSSNIGNNYVSWYQQLPGTAPKLLIYDNNKRPSGIPDRFSGSKSGTSATLGITGLQTGDEADYYCGTYDYIATRAVFGGGTKLTVLGAA | ≥ 80 | – |
| anti-PTPRZ1 471_28z chimeric antigen receptor (on RNA CAR T cells) (protein, part only; not given: CD3zeta signalling domain, part only) chain, part: MAEVQLVESGGGLVQPGGSLRLSCAASGFTFSSYSMNWVRQAPGKGLEWVSYISSSSSTIYYADSVKGRFTISRDNAKNSLYLQMNSLRAEDTAVYYCARPGYGDFPGAFDIWGQGTLVTVSSGGGGSGGGGSGGGGSTQSALTQPASVSGSPGQSITISCTGTSSDVGGYNYVSWYQQHPGKAPKLMIYEVSNRPSGVSNRFSGSKSGNTASLTISGLQAEDEADYYCSSYDWATYGSVFGGGTKLTVLGAAESKYGPPCPPCPFWVLVVVGGVLACYSLLVTVAFIIFWVRSKRSRGGHSDYMNMTPRRPGPTRKHYQPYAPPRDFAAYRS | – | 80 |

Second part, led by results:

| level of recognition (percent, flow cytometry) [1] [%] | Binder | killing of Ge518 PTPRZ1-KI target cells by CAR T cells, E:T 3:1 [2] [%] |
| --- | --- | --- |
| ≥ 80 | anti-PTPRZ1 scFv RRB476 conjugated to a rabbit Fc (Fc fusion, scFv conjugated to a rabbit Fc for flow cytometry; also called scFv 476; not shown: rabbit Fc) scFv: MAQVQLVESGGGVVQPGRSLRLSCAASGFTFSSYAMHWVRQAPGKGLEWVAVISYDGSNKYYADSVKGRFTISRDNSKNTLYLQMNSLRAEDTAVYYCARDQDDSSDAFDIWGQGTLVTVSSGGGGSGGGGSGGGGSTQSVLTQPPSVSAAPGQKVTISCSGSSSNIGNNYVSWYQQLPGTAPKLLIYDNNKRPSGIPDRFSGSKSGTSATLGITGLQTGDEADYYCGTWDYKVSRLVFGGGTKLTVLGAA | – |
| ≥ 80 | anti-PTPRZ1 scFv RRB471 conjugated to a rabbit Fc (Fc fusion, scFv conjugated to a rabbit Fc for flow cytometry; not shown: rabbit Fc) scFv: MAEVQLVESGGGLVQPGGSLRLSCAASGFTFSSYSMNWVRQAPGKGLEWVSYISSSSSTIYYADSVKGRFTISRDNAKNSLYLQMNSLRAEDTAVYYCARPGYGDFPGAFDIWGQGTLVTVSSGGGGSGGGGSGGGGSTQSALTQPASVSGSPGQSITISCTGTSSDVGGYNYVSWYQQHPGKAPKLMIYEVSNRPSGVSNRFSGSKSGNTASLTISGLQAEDEADYYCSSYDWATYGSVFGGGTKLTVLGAA | – |
| ≥ 80 | anti-PTPRZ1 scFv RRB469 conjugated to a rabbit Fc (Fc fusion, Flow cytometry was done with the scFvs conjugated to a rabbit Fc, detected with anti-rabbit IgG AlexaFluo488; also called scFv 469; not shown: rabbit Fc) scFv: MAQVQLVESGGGVVQPGRSLRLSCAASGFTFSSYAMHWVRQAPGKGLEWVAVISYDGSNKYYADSVKGRFTISRDNSKNTLYLQMNSLRAEDTAVYYCARGSGYSYGPGYDAFDIWGQGTLVTVSSGGGGSGGGGSGGGGSTNFMLTQPHSVSESPGKTVTISCTRSSGSIASNYVQWYQQRPGSSPTTVIYEDNQRPSGVPDRFSGSIDSSSNSASLTISGLKTEDEADYYCQSWDPVFGVFGGGTKLTVLGAA | – |
